From PMC5397884 (Biochemistry, 2017)
“And” between values parts separate entries of the source, which are not always exact repeats. Identical values can stand only once. Where no end group is shown, it is not given here.

Tests used:
[1] = biological target: GmPOPB-S577A (inactive mutant) (Galerina marginata) (UniProt H2E7Q8); assay: ITC; 200 uM peptide in the syringe titrated into 20 uM protein in the cell; 20 °C; 50 mM Tris (pH 8.0), 50 mM NaCl, 10 mM DTT; single-site model, n fixed at 1.0
[2] = tested on: CC[C@H](C)[C@H](N)C(=O)N[C@@H](Cc1c[nH]c2ccccc12)C(=O)NCC(=O)N[C@H](C(=O)NCC(=O)N[C@@H](CS)C(=O)N[C@@H](CC(N)=O)C(=O)N1CCC[C@H]1C(=O)N[C@@H](Cc1c[nH]c2ccccc12)C(=O)N[C@H](C(=O)N[C@@H](C)C(=O)N[C@@H](CCC(=O)O)C(=O)N[C@@H](Cc1c[nH]cn1)C(=O)N[C@H](C(=O)N[C@@H](CC(=O)O)C(=O)N[C@@H](CCC(N)=O)C(=O)N[C@H](C(=O)N[C@@H](CC(C)C)C(=O)N[C@@H](C)C(=O)N[C@@H](CO)C(=O)NCC(=O)N[C@@H](CC(N)=O)C(=O)N[C@@H](CC(=O)O)C(=O)N[C@H](C(=O)N[C@@H](CS)C(=O)O)[C@@H](C)CC)[C@@H](C)O)C(C)C)[C@@H](C)O)[C@@H](C)CC; assay: purified protein, by the assay type; details: 50 mM NaCl, 10 mM DTT, duplicate
[3] = biological target: His680 (UniProt position 680, DTKAGHGAGKP); assay: other (titration of the catalytic histidine; the title of ref 41 indicates inhibitor binding); details: cited from earlier work
[4] = biological target: T1, GmPOPB (Galerina marginata, UniProt H2E7Q8); assay: Global fitting by numerical integration of quenched-flow and stopped-flow data; format: biochemical; details: read-out: k–5 (tail association), Kintek best-fit
T1 construct: His tag (TEV-cleavable) (cleaved yes); made in house; host or cells: E. coli BL21(DE3)

[5] = biological target: T1, GmPOPB; assay: biochemical; details: Figure S10, fit to Equation S4; activity normalized to no inhibitor (100%) and 50 µM recognition sequence (0%)
[6] = biological target: GmPOPB–tail complex (GmPOPB-S577A pre-mixed with the peptide tail) (Galerina marginata) (UniProt H2E7Q8); assay: stopped-flow tryptophan fluorescence; analytical fitting; excitation 285 nm, emission above 320 nm; 20 °C; 50 mM Tris-HCl (pH 8.0), 50 mM NaCl, 10 mM DTT; constants calculated from rate constants; Kov is an apparent dissociation constant for a two-step binding process
[7] = biological target: GmPOPB–tail complex (GmPOPB-S577A pre-mixed with the peptide tail) (Galerina marginata) (UniProt H2E7Q8); assay: stopped-flow tryptophan fluorescence; global fitting by numerical integration (KinTek Global Kinetic Explorer) of stopped-flow binding and quenched-flow turnover data together; 20 °C; k1/k-1 and k5/k-5 linked by the ITC Kd values; k4 and k-4 fixed at best-fit values
[8] = tested on: porcine POP; details: cited from earlier work
[9] = biological target: T2, Prolyl oligopeptidase B from Galerina marginata (GmPOPB) (Galerina marginata, UniProt H2E7Q8 1-730); assay: stopped-flow tryptophan fluorescence; global fitting by numerical integration (KinTek Global Kinetic Explorer) of stopped-flow binding and quenched-flow turnover data together; 20 °C; k1/k-1 and k5/k-5 linked by the ITC Kd values; k4 and k-4 fixed at best-fit values; details: both partners purified
T2 sequence (looked up): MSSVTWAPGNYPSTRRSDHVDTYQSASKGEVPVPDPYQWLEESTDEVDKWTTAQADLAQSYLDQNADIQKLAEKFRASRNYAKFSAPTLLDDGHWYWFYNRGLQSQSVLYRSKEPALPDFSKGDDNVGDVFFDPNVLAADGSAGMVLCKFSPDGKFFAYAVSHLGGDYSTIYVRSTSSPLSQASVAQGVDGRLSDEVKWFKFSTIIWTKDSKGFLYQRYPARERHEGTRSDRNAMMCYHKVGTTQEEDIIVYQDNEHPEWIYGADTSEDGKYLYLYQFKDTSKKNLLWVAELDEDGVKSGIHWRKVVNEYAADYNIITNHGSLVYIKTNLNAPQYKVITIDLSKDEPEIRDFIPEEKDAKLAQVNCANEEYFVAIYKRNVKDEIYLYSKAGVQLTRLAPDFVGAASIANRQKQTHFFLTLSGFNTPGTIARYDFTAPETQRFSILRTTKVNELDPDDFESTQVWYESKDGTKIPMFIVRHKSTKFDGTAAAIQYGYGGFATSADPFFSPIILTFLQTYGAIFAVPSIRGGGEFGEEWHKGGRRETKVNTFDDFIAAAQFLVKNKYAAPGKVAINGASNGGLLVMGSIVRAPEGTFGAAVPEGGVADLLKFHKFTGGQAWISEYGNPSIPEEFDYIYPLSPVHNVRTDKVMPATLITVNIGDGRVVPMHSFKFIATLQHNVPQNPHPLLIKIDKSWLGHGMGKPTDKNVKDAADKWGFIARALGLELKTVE

[10] = biological target: T2, Prolyl oligopeptidase B from Galerina …; assay: ITC; 200 uM peptide in the syringe titrated into 20 uM protein in the cell; 20 °C; 50 mM Tris (pH 8.0), 50 mM NaCl, 10 mM DTT; single-site model, n fixed at 1.0; details: both partners purified
[11] = biological target: T2, Prolyl oligopeptidase B from Galerina …; assay: as above; details: both partners purified; remark: listed apart in the source
[12] = biological target: T2, Prolyl oligopeptidase B from Galerina …; assay: stopped-flow tryptophan fluorescence; analytical fitting; excitation 285 nm, emission above 320 nm; 20 °C; 50 mM Tris-HCl (pH 8.0), 50 mM NaCl, 10 mM DTT; constants calculated from rate constants; Kov is an apparent dissociation constant for a two-step binding process; details: both partners purified
[13] = biological target: T3, Prolyl oligopeptidase B from Galerina marginata (GmPOPB) (Galerina marginata, UniProt H2E7Q8 1-730); assay: stopped-flow tryptophan fluorescence; 2 μM GmPOPB, peptide tail 0.5-20 μM, 20 °C, excitation 285 nm, emission above 320 nm; analytical fitting (replots of kobs and of amplitudes against tail concentration); details: both partners purified
T3 sequence (looked up): T2 sequence (looked up)

[14] = biological target: T3, Prolyl oligopeptidase B from Galerina …; assay: as above; details: both partners purified; remark: listed apart in the source
[15] = biological target: T3, Prolyl oligopeptidase B from Galerina …; assay: stopped-flow tryptophan fluorescence; 2 μM GmPOPB, peptide tail 0.5-20 μM, 20 °C; this experiment fitted individually by numerical integration (KinTek Global Explorer, Fitspace boundaries), no constraints; details: both partners purified
[16] = other: 20 °C, 50 mM Tris-HCl (pH 8.0), standard error, 20.0 °C

Sequence of 25mer peptide substrate of GmPOPB (core plus peptide tail of the amanitin precursor) (A0A067SLB9 11-35 limits assumed): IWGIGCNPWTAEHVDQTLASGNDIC

For “25mer peptide substrate of GmPOPB (core plus peptide tail of the amanitin precursor)”, the stoichiometry N [1] was 1.

For GmPOPB (Galerina marginata CBS 339.88), the Km [2, 16] was 55 µM and 55.4 ± 18.6 µM, the kcat [2, 16] was 0.23 ± 0.03 s^–1 and the Km ([2]; other: H2O, 37 °C, 50 mM Tris (pH 8.0), LC–MS, 37.0 °C) was 51 µM.

In the case of “Prolyl oligopeptidase (prolyl endopeptidase, POP) (Sus scrofa)”, the pKa [3] is given as 6.25.

WTAEHVDQTLASGNDIC [peptide tail] gave a kon [4] of 3.22e+06 ± 10000 M⁻¹ s⁻¹ and an IC50 [5] of 320 ± 100 nM.

“eight-amino acid cyclic peptide product of the GmPOPB macrocyclization reaction” gave a Kd [6] of 99.2 nM, a k3 (slower step of the two-step binding, direction of release of the cyclic peptide) [7] of 12.3 s^–1 and a k4 (fast bimolecular step of the two-step binding, dissociation of the cyclic peptide) [7] of 100 s^–1. The k-3 (slower step of the two-step binding, direction of binding of the cyclic peptide) [7] was 0.78 μM^–1 s^–1 and the k-4 (fast bimolecular step of the two-step binding, association of the cyclic peptide) [7] was 60 μM^–1 s^–1.

In the case of “porcine POP: Sus scrofa (porcine) prolyl oligopeptidase”, the “activation energy, porcine POP” value ([8]; depending on the substrate used) is given as 14 to 20 kcal mol^–1, the “pKa (first), porcine POP” value ([8]; dipeptide substrate) is given as 5 and the “pKa (second), porcine POP” value ([8]; dipeptide substrate) is given as 7. For the same molecule, the “pKa (third), porcine POP” value ([8]; dipeptide substrate) was 9.5 and the “pKa of catalytic His680, porcine POP” value ([8]; titration of the catalytic histidine) was 6.25.

With WTAEHVDQTLASGNDIC [peptide tail (17-amino acid C-terminal recognition sequence)] the koff [9] was 1.44 s⁻¹, the Kd [10] was 442 nM and the “stoichiometry N” value [11] was ~1. For the same molecule, the Kd [12] was 731 nM.

For WTAEHVDQTLASGNDIC [Peptide tail (WTAEHVDQTLASGNDIC)], the Kd [13] was 322 ± 37.5 nM, the koff [14] was 3.54 s⁻¹ and the kon [14] was 4.84e+06 M⁻¹ s⁻¹. The koff [15] was 0.58 s⁻¹ and the kon [15] was 4.69e+06 M⁻¹ s⁻¹.
